Experimental data from patent US20080221021A1, “Novel Corticotropin-Releasing Factor Receptor 1 (Crfr1) Agonist” (Max-Planck-Gesellschaft Zur Forderung Der, priority 2004, published 2008).

What was measured:
rat CRFR1α (rat) [1] = biological target: rat CRFR1α (rat) (UniProt P35353); test: competition binding against [125I-Tyr0]h/rCRF, SPA; reference compound 6
rat CRFR1α (rat) [2] = biological target: rat CRFR1α (rat) (UniProt P35353); test: competition binding; selectivity for CRFR1 over CRFR2, reference h/rCRF; data not shown
mouse CRFR2β (mouse) [3] = biological target: mouse CRFR2β (mouse) (UniProt Q60748); test: competition binding
Sequence of mouse CRFR2β (mouse) (Q60748 20-411): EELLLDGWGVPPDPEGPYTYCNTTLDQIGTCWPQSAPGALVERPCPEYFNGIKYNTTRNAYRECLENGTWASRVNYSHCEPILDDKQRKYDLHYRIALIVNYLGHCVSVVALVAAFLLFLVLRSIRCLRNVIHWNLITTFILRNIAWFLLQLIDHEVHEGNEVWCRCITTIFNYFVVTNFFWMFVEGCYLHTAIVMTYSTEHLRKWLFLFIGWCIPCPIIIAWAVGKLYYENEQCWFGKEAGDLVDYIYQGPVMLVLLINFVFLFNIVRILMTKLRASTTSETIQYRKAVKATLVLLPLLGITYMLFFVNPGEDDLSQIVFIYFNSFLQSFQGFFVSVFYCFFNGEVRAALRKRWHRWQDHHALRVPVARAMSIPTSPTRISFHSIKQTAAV

rat CRFR1α (rat) [4] = biological target: rat CRFR1α (rat) (UniProt P35353); test: competition binding
mouse CRFR2β (mouse) [5] = biological target: mouse CRFR2β (mouse) (UniProt Q60748); test: competition
rat CRFR1α (rat) [6] = biological target: rat CRFR1α (rat) (UniProt P35353); test: competition binding (SPA); selectivity for rCRFR1 over mCRFR2β, reference h/rCRF

Sequence of rat CRFR1α (rat) (P35353 24-415): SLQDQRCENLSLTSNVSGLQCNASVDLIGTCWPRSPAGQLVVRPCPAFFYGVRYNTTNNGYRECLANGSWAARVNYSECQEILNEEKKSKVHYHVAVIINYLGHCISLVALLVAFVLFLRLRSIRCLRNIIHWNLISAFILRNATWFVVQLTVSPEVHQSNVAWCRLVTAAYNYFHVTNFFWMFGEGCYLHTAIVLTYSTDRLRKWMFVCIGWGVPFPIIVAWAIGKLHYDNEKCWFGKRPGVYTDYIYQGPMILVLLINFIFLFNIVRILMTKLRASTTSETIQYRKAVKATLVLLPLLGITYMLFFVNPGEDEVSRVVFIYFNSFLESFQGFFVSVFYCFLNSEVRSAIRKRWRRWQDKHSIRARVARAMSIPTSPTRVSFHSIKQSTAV
Sequence of human/rat corticotropin-releasing factor (P06850 154-194): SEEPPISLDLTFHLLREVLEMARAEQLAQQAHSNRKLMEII

| Substance | IC50 (rat CRFR1α (rat) [4]) | IC50 (mouse CRFR2β (mouse) [3]) | other results |
| --- | --- | --- | --- |
| [Ala^40] [Svg^1-12]x[h/rCRF^14-30]x[Svg^30-40] (peptide) |  |  | fold increase in affinity against compound 6 (rat CRFR1α (rat) [1]): > 5 fold |
| [Ala^41]h/rCRF (from UniProt P06850 154-194) (peptide) |  |  | fold increase in CRFR1 selectivity against h/rCRF (rat CRFR1α (rat) [2]): 3 fold |
| [Svg^1-12]x[h/rCRF^14-30]x[Svg^30-40] (from UniProt P01144 1-12; P06850 167-183; P01144 30-40) | 9.5 nM | 700 nM |  |
| [h/rCRF^1-13]x[Svg^13-29]x[h/rCRF^31-41] (from UniProt P06850 154-166; P01144 13-29; P06850 184-194) | 0.47 nM | 0.69 nM |  |
| [h/rCRF^1-30]x[Svg^30-40] (from UniProt P06850 154-183; P01144 30-40) | 2 nM | 330 nM |  |
| ovine corticotropin-releasing factor (peptide) |  |  | fold higher selectivity for CRFR1 than h/rCRF (rat CRFR1α (rat) [6]): 3 fold |

The next lines start with results.

| IC50 (rat CRFR1α (rat) [4]) | Substance | IC50 (mouse CRFR2β (mouse) [3]) | other results |
| --- | --- | --- | --- |
| 1.8 nM | [Svg^1-29]x[h/rCRF^31-41] (from UniProt P01144 1-29; P06850 184-194) | 0.98 nM |  |
| 1.6 nM | human/rat corticotropin-releasing factor (from UniProt P06850 154-194) |  | IC50 (mouse CRFR2β (mouse) [5]): 42 nM |
